The values that follow come from patent publication CN112980885A (HENGYI BIOMEDICAL TECH SHANGHAI CO LTD, dated 2021).

For the assay, the target named is 真实SARS-CoV-2(活病毒). Kind of assay: cell-based or functional assay.

Changes are numbered by the printed parent chain.

B1: 抗体15A7 (antibody, V domains shown)
VH: QVQLVQSGAEVKKPGASVKVSCKASGYTFTSYDINWVRQASGQGLEWMGWMNPNSANPGYAQKFQGRVTMTRNTSISTAFMELSSLRSDDTAVYYCARARVTIHYDILTGYYSNAFDIWGQGTMVAVSS
VL: DIQMTQSPSSLSASVGDRVTITCRASQTISSYLNWYQQKPGKAPKLLIYAASSLQSGVPSRFSGSGSGADFTLTISSLQPEDFATYYCQQSYTTFMYTFGQGTMLEIK
On to B1, for which the “EC50 (活病毒在Vero-E6细胞中的活体外中和分析)” value came to 0.61 µg/mL.

B2: 抗体37G2 (antibody, V domains shown)
VH: QVQLVQSGAEVKKPGSSVKVSCKASGGTFSSYAITWVRQAPGQGLEWMGGIIPIFGTANFAQKFQGRVTITADESTSTAYMELSSLRSEDTAVYYCAHLGGFADPFDYWGQGTLVTVSS
VL: EIVLTQSPATLSLSPGERATLSCRASQSVSNYLAWYQQKAGQAPRVLIYDAFNRATGIPARFSGSGSGTDFTLTISSLEPEDFAVYYCQQRSNWPPRITFGQGTRLEIK
Take B2: the “EC50 (活病毒在Vero-E6细胞中的活体外中和分析)” value came out at 1.37 µg/mL.

B3: 抗体31C2 (antibody, V domains shown)
VH: QVQLVQSGAEVKKPGSSVKVSCKASGGTFSSYAISWVRQAPGQGLEWMGGIIPIFGTTNYAQKFQGRVTITADESTSTAYMELNSLRSEDTAVYYCAGRSAYGDKGYYFDYWGQGTLVTVSS
VL: B2 VL with Y32F, A40P, V46L, F52S, E79Q, R97Q, I98E, R105K, L106V
Turning to B3, the “EC50 (活病毒在Vero-E6细胞中的活体外中和分析)” value worked out at 0.57 µg/mL.
